In patent US20050287132A1, “Biliverdin reductase fragments and variants, and methods of using biliverdin reductase and such fragments and variants” (University of Rochester, priority 1999, published 2005):
Positions count from the first letter of the chain named. One block for each molecule: values may come before it.

Assays:
PKC = experiment: Effect of BVR and peptides on PKC activity (MBP substrate, kinetic analysis); format: biochemical; details: for Vmax of the PKC reaction with respect to ATP / Vmax of the PKC reaction with respect to MBP: in the presence of 50 μM BVR or peptide; for Km for the substrate (MBP) of the PKC reaction: in the presence of 50 μM peptide; for nature of kinetics with respect to substrate concentration: MBP varied
Method: FIGS. 11A-C are graphs depicting the role of BVR in increasing protein kinase C activity. FIG. 11A depicts the dose-dependence of PKC activity in the presence of BVR or PKC inhibitor peptide (“PKCI”) in an assay system containing 0.5 μg/ml PKC, 50 μM unlabeled ATP, 5 μCi[^32γP]-ATP and 1 mg/ml MBP and carried out as described infra. FIGS. 11B-C are the kinetic analyses of PKC activity carried out with respect to MBP (FIG. 11B) and with respect to ATP (FIG. 11C) in the presence or absence of 50 μM BVR.
FIGS. 12A-C are graphs illustrating the effect of various rBVR fragments on PKC activity. Protein kinase C was incubated at 30° C. with buffer or with the indicated peptides (50 μM) for 15 min prior to addition to a kinase assay using MBP as substrate. FIG. 12A depicts the relative activity for each sample normalizing to that of the PKC and buffer control value. FIGS. 12B-C are the kinetic analyses of PKC with respect to substrate MBP (FIG. 12B) and ATP (FIG. 12C) in the presence or absence of BVR peptide fragments (50 μM). BVR1 peptide corresponds to SEQ. ID. No. 34 and BVR2 peptide corresponds to SEQ. ID. No. 19.
Incubation time was 8 min at 30° C.

[1] = Biliverdin reductase catalytic activity of recombinant wild type and mutant hBVR (Example 2, FIG. 3); format: biochemical, human; details: pH/cofactor not stated
Method: FIGS. 3A-C are graphs depicting the effects of mutation of Gly^17, Ser^149, and Lys^296 on BVR catalytic activity. Purified preparations of recombinant wild type and mutant BVR with substitution of Gly^17 (FIG. 3A), Ser^149 (FIG. 3B), or Lys^296 (FIG. 3C) with Ala were assessed for BVR activity at pH 6.5 using NADH as cofactor and at pH 8.7 with NADPH as cofactor. Values presented are in percent wild type activity for each pH. The specific activity of the wild type preparation was 1744 nmol bilirubin produced min^−1 mg^−1 at pH 6.5 and 1147 nmol bilirubin produced min^−1 mg^−1 at pH 8.7. Values presented are representative of 2-4 determinations.
GST-BVR fusion proteins were prepared as described in Example 1. Human kidney biliverdin reductase was purified to homogeneity as described by Maines et al., Arch. Biochem. Biophys. 300:320-326 (1993), which is hereby incorporated by reference. The purified reductase preparations were judged to be homogenous by SDS-PAGE. Protein concentration was determined by the method of Bradford, Anal. Biochem. 72:248-254 (1976), which is hereby incorporated by reference.
Activity was determined as previously described by Huang et al., J. Biol. Chem. 264:7844-7849 (1989), which is hereby incorporated by reference, using NADPH as the cofactor at pH 8.7 in 0.1 M […] or NADH at pH 6.5 in […]. The rate of activity was measured as the increase in 450 nm absorbance at 25° C. Specific activity is expressed in units/mg protein, where 1 unit catalyzes the formation of 1 nmol bilirubin/min.

[2] = Biliverdin reductase activity of E. coli expressed hBVR wild type and mutants (Example 1); format: biochemical, human; details: for Activity (nmol bilirubin/min/mg) pH 6.7 + NADH: pH 6.7, NADH cofactor; for Activity (nmol bilirubin/min/mg) pH 6.7 + NADH / Activity (nmol bilirubin/min/mg) pH 8.7 + NADPH: 25°; for Activity (nmol bilirubin/min/mg) pH 8.7 + NADPH: pH 8.7, NADPH cofactor; for Activity % pH 6.7 + NADH / Activity % pH 8.7 + NADPH: Cys→Ala mutations; for Activity % pH 6.7 + NADH: wild type = 100, pH 6.7, NADH; for Activity % pH 8.7 + NADPH: wild type = 100, pH 8.7, NADPH
Method: SalI linkers are underlined in each primer. The products were digested with SalI and cloned into the vector pGEX 4T-2. Orientation was determined by restriction analysis and confirmed by sequencing. The ligation places the BVR coding region in frame with the GST protein of the vector. GST-BVR fusion proteins were purified from bacterial clones containing the plasmid, and grown overnight using a glutathione-sepharose 4B column (Pharmacia). The reductase portion of the fusion protein was released by thrombin protease treatment.
Activity was determined as previously described (Kutty et al., J. Biol. Chem. 256:3956-3962 (1981); Huang et al., J. Biol. Chem. 264:7844-7849 (1989), which are hereby incorporated by reference). Activity was determined in a 1 ml assay volume that contained 0.1 M Tris/HCl, pH 8.7 NADPH (100 μM), and biliverdin (5 μM). Reductase activity was also measured using NADH (1 mM) as the cofactor; in this case 0.1 M potassium phosphate pH 6.75, was substituted for Tris/HCl. SDS/PAGE was performed by the method of Laemmli, Nature 227:680-685 (1970), which is hereby incorporated by reference. Western blot analysis was performed using anti-serum to human kidney biliverdin reductase as previously described (Maines et al., Arch. Biochem. Biophys. 300:320-326 (1993), which is hereby incorporated by reference). The relative amounts of immunoreactive protein were determined by scanning the blot using a laser densitometer and comparing the area under the peak for each mutant with the wild type. The rate of activity was measured as the increase in 450 nm absorbance at 25° C. Specific activity is expressed as nmol bilirubin/min/ mg protein.

[3] = biological target: protein kinase C (a mixture containing equal amounts of isozymes α, β and γ) (Promega); experiment: cell-based or functional assay
[4] = biological target: protein kinase C (a mixture containing equal amounts of isozymes α, β and γ) (Promega)

Km for the substrate (MBP) of the PKC reaction (PKC): 0.12 mg/mL
Molecule: QKLCHQKK [peptide 2, ID; No. 19]
Vmax of the PKC reaction with respect to ATP (PKC): 3.12 pmol/min
Vmax of the PKC reaction with respect to MBP (PKC): 1.82 pmol/min
inhibition of PKC activity (PKC; peptide 50 μM, MBP substrate): more than 75%
nature of kinetics with respect to substrate concentration (PKC; peptide 50 μM): uncompetitive

Molecule: RKRCLRRL [PKCI peptide, ID; No. 29, reference compound]
dose dependence of PKC activity (^32P into MBP) (PKC; PKC preincubated 15 min at 30° C., MBP substrate): dose-dependent inhibition of activity
inhibition of PKC activity (PKC; peptide 50 μM, MBP substrate): 90%

Molecule: KKRIMHC [peptide 1, ID; No. 18]
Vmax of the PKC reaction with respect to ATP (PKC): 4.2 pmol/min
Vmax of the PKC reaction with respect to MBP (PKC): 2.92 pmol/min
Km for the substrate (MBP) of the PKC reaction (PKC): 0.39 mg/mL
effect on PKC activity (PKC; peptide 50 μM, MBP substrate): stimulated PKC activity
nature of kinetics with respect to substrate concentration (PKC; peptide 50 μM): mixed kinetics

B1: Ser^44: hBVR SEQ. ID. No. 1 with Ser^44→Ala within one of the kinase motifs (protein, listed as Homo sapiens)
chain: MNAEPERKFGVVVVGVGRAGSVRMRDLRNPHPSSAFLNLIGFVARRELGSIDGVQQISLEDALSSQEVEVAYICSESSSHEDYIRQFLNAGKHVLVEYPMTLSLAAAQELWELAEQKGKVLHEEHVELLMEEFAFLKKEVVGKDLLKGSLLFTSDPLEEDRFGFPAFSGISRLTWLVSLFGELSLVSATLEERKEDQYMKMTVCLETEKKSPLSWIEEKGPGLKRNRYLSFHFKSGSLENVPNVGVNKNIFLKDQNIFVQKLLGQFSEKELAAEKKRILHCLGLAEEIQKYCCSRK
enzyme activity [1]: did not display loss of enzyme activity
Activity (nmol bilirubin/min/mg) pH 6.7 + NADH [2]: 7443 nmol bilirubin/min/mg
increase in activity at pH 6.7 with NADH ([2]; pH 6.7, NADH, versus wild type): 2.5 fold
Activity (nmol bilirubin/min/mg) pH 8.7 + NADPH [2]: 333 nmol bilirubin/min/mg
reduction in NADPH-dependent activity ([2]; pH 8.7, NADPH, versus wild type): 70-75%

Km of the PKC reaction for the substrate MBP, peptide 50 µM (control 0.165 mg/ml) [3]: 0.39 mg/mL
Vmax of the PKC reaction with respect to the cofactor ATP, peptide 50 µM (control 3.81 pmol/min) [3]: 4.2 pmol/min
Vmax of the PKC reaction with respect to the substrate MBP, peptide 50 µM (control 2.25 pmol/min) [3]: 2.92 pmol/min
Molecule: KKRIMHC [BVR peptide K274KRIMHC280 (peptide 1)]

B2: rat biliverdin reductase as used in the PKC activity assays (protein)
chain: AEPKRKFGVVVVGVGRAGSVRLRDLKDPRSAAFLNLIGFVSRRELGSLDEVRQISLEDALRSQEIDVAYICSESSSHEDYIRQFLQAGKHVLVEYPMTLSFAAAQELWELAAQKGRVLHEEHVELLMEEFEFLRREVLGKELLKGSLRFTASPLEEERFGFPAFSGISRLTWLVSLFGELSLISATLEERKEDQYMKMTVQLETQNKGLLSWIEEKGPGLKRNRYVNFQFTSGSLEEVPSVGVNKNIFLKDQDIFVQKLLDQVSAEDLAAEKKRIMHCLGLASDIQKLCHQKK
Km of the PKC reaction for the substrate MBP, upon addition of BVR [4]: substrate Km increasing from 0.145 to 0.16 upon addition of BVR to the reaction
PKC activity, incorporation of 32P into MBP, after 15 min preincubation of PKC with varying concentrations of BVR [4]: incorporation of ^32P into MBP was increased in a dose-dependent manner in the presence of BVR
Vmax of the PKC reaction with respect to ATP, in the presence of 50 µM BVR [4]: increased from 3.3 to 4.9 and 1.7 to 2.9 pmol/min, respectively
Vmax of the PKC reaction with respect to MBP, in the presence of 50 µM BVR [4]: increased from 3.3 to 4.9 and 1.7 to 2.9 pmol/min, respectively

inhibition of PKC activity, peptide at the same concentration as BVR peptide 2 [3]: 90%
Molecule: RKRCLRRL [PKC inhibitor peptide RKRCLRRL]

Km of the PKC reaction for the substrate MBP, peptide 50 µM (control 0.165 mg/ml) [3]: 0.12 mg/mL
Vmax of the PKC reaction with respect to the cofactor ATP, peptide 50 µM (control 3.81 pmol/min) [3]: 3.12 pmol/min
Vmax of the PKC reaction with respect to the substrate MBP, peptide 50 µM (control 2.25 pmol/min) [3]: 1.82 pmol/min
inhibition of PKC activity with MBP as substrate, peptide 50 µM [3]: > 75%
Molecule: QKLCHQKK [BVR peptide Q288KLCHQKK295 (peptide 2)]

B3: Lys^92/His^93: hBVR with Lys^92His^93→Ala-Ala within the oxidoreductase motif (protein, UniProt P53004 3-296, looked up, variant K92A H93A)
Biliverdin reductase A: AEPERKFGVVVVGVGRAGSVRMRDLRNPHPSSAFLNLIGFVSRRELGSIDGVQQISLEDALSSQEVEVAYICSESSSHEDYIRQFLNAGAAVLVEYPMTLSLAAAQELWELAEQKGKVLHEEHVELLMEEFAFLKKEVVGKDLLKGSLLFTAGPLEEERFGFPAFSGISRLTWLVSLFGELSLVSATLEERKEDQYMKMTVCLETEKKSPLSWIEEKGPGLKRNRYLSFHFKSGSLENVPNVGVNKNIFLKDQNIFVQKLLGQFSEKELAAEKKRILHCLGLAEEIQKYCCSRK
Activity (nmol bilirubin/min/mg) pH 6.7 + NADH [2]: 0 nmol bilirubin/min/mg
reductase activity relative to the control (wild type) ([2]; pH 6.7 with NADH): loss of enzyme activity
Activity (nmol bilirubin/min/mg) pH 8.7 + NADPH [2]: 0 nmol bilirubin/min/mg
reductase activity relative to the control (wild type) ([2]; pH 8.7 with NADPH): loss of enzyme activity

B4: Cys^74,204^,^281,292,293: hBVR construct with all 5 Cys residues combined changed to Ala (protein, UniProt P53004 3-296, looked up, variant C74A C204A C281A C292A C293A)
Biliverdin reductase A: B3 Biliverdin reductase A with C72A, A90K, A91H, C202A, C279A, C290A, C291A
Activity % pH 6.7 + NADH [2]: 1%
Activity % pH 8.7 + NADPH [2]: 10%

B5: Cys^281: hBVR with Cys^281→Ala within the zinc finger domain (protein, UniProt P53004 3-296, looked up, variant C281A)
Biliverdin reductase A: B3 Biliverdin reductase A with A90K, A91H, C279A
Activity % pH 6.7 + NADH [2]: 31%
Activity % pH 8.7 + NADPH [2]: 23%

B6: Cys^74: hBVR with Cys^74→Ala within a substrate binding domain (protein, UniProt P53004 3-296, looked up, variant C74A)
Biliverdin reductase A: B3 Biliverdin reductase A with C72A, A90K, A91H
Activity % pH 6.7 + NADH [2]: 44%
Activity % pH 8.7 + NADPH [2]: 45%

B7: Cys^292^,^293: hBVR construct with Cys^292+Cys^293→Ala mutations (protein, UniProt P53004 3-296, looked up, variant C292A C293A)
Biliverdin reductase A: B3 Biliverdin reductase A with A90K, A91H, C290A, C291A
Activity % pH 6.7 + NADH [2]: 94%
Activity % pH 8.7 + NADPH [2]: 100%
